One may read the stoichiometry N as the number of molecules, sites or subunits per partner or assembly.

The target in test [1] is EccB5 (Mycobacterium xenopi). The test is described as follows: cryo-EM structure.
In test [2] the target is EccD5 (Mycobacterium xenopi). The test is described as follows: cryo-EM structure.

For EccB5 (natural protein), the stoichiometry N in test [1] was 6.

With EccD5 (natural protein), the stoichiometry N in test [2] was 2.

The values are drawn from publication doi:10.1101/2020.11.17.387225.
